One molecule from paper PMC2643056 (Molecular cell, 2008) can be followed below.

The target in this experiment is T1, His6-Dsk2 (S. cerevisiae, UniProt P48510 1-373).
T1 sequence (looked up): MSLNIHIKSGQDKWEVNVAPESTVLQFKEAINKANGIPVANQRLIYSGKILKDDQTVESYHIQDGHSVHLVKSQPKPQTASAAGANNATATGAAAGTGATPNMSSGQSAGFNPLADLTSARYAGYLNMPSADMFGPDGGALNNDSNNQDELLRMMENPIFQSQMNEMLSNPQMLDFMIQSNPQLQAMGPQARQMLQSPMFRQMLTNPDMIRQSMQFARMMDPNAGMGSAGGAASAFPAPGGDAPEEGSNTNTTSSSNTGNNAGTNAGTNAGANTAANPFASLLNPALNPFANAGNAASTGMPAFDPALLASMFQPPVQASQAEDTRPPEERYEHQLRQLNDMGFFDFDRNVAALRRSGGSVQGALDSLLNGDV
Briefly: far-Western, overlay or dot blot.

B1: recombinant Rpn10, full length (natural protein, S. cerevisiae, UniProt P38886 1-268, looked up)
chain: MVLEATVLVIDNSEYSRNGDFPRTRFEAQIDSVEFIFQAKRNSNPENTVGLISGAGANPRVLSTFTAEFGKILAGLHDTQIEGKLHMATALQIAQLTLKHRQNKVQHQRIVAFVCSPISDSRDELIRLAKTLKKNNVAVDIINFGEIEQNTELLDEFIAAVNNPQEETSHLLTVTPGPRLLYENIASSPIILEEGSSGMGAFGGSGGDSDANGTFMDFGVDPSMDPELAMALRLSMEEEQQRQERLRQQQQQQDQPEQSEQPEQHQDK
Turning to B1, the binding result is recorded as “binds”.
